Values quoted from earlier work in PMC3686100.
pKd: −log10 of the molar value.

Target: ClpP (Escherichia coli) (UniProt P0A6G7)
UniProt P0A6G7, sequence (P0A6G7 15-207): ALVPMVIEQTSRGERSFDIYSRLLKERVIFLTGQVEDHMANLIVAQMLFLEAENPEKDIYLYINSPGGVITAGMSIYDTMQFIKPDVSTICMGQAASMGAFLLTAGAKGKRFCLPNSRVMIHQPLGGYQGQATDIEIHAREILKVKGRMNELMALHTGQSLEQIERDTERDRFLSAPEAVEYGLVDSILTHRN

- pKd: 7.05
Substance: ClpX (from UniProt P0A6H1)
